Assay results: the supplement of paper PMC9732359
± gives the uncertainty stated by the source.

Experiment: protein stability index of a GFP-peptide fusion (yeast GPS) (PSI 1-4); higher = more stable; sorted into four equal gates, so the index is relative within each strain
Conditions: pdr5∆
Procedure, shortened: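 Mid-log yeast cultures in leucine-free medium, carrying a pooled plasmid library, were sorted into four equal gates by their GFP/Cherry fluorescence ratio. Each plasmid expressed Cherry along with GFP fused upstream of a tiled 17-residue yeast protein peptide. Plasmids recovered from each gate were PCR-amplified and Illumina-sequenced, with reads assigned to strains by barcodes. The protein stability index was obtained by summing each gate's read frequency weighted by its gate number.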

Row | Sequence | protein stability index
1 | LLTEELAKSGSTEETTA [TAF14] | 3.05 ± 0.091
2 | LLVNPDIDLETYSFIDN [YML103C/NUP188] | 2.6 ± 0.048

Same assay, conditions: san1∆

Row | Sequence | protein stability index
3 | LESISHAGTAIGIMASD [PRE9] | 2.06 ± 0.14
4 | LETLEHNGAPHHAIEEA [RPO21] | 2.94 ± 0.09
5 | LEYEISKLKKETASFIP [YIL149C/MLP2] | 2.89 ± 0.06
6 | LFGNKPTTTTGGLFGNS [YGR119C/NUP57] | 2.85 ± 0.18
7 | LGEEHPLQVARCTKIIK [RPT1] | 2.75 ± 0.082
8 | LGGEINDNEDDDEEYDY [BRR2] | 3.28 ± 0.065
9 | LGICTHLGCVPIGEAGD [RIP1] | 1.79 ± 0.1
10 | LGKCSRITDASLFQLSK [GRR1] | 3.14 ± 0.093
11 | LGKKKATVDEFPLCVHL [RPL10] | 3 ± 0.29
12 | LGNGVACDPSEIEPILM [RGR1] | 3.34 ± 0.071
13 | LGNHAITIDSVVDANGC [YMR129W/POM152] | 2.56 ± 0.07
14 | LGNTSSVANTPSEIPDA [SWI3] | 3.03 ± 0.091
15 | LGPGIYCDPNTQEIRPV [RRP40] | 2.53 ± 0.057
16 | LGSGSNVDVCVMEIGKD [PUP1] | 3.4 ± 0.06
17 | LGVKNLGLCCLLDVKLA [YCG1] | 1.82 ± 0.063
18 | LGVKSRLLEKSELPDIY [SNF2] | 3.05 ± 0.082
19 | LHKEQWQSGLKMYDYEE [RPN11] | 2.28 ± 0.096
20 | LHKFLTKWGLINYQVDS [SWI3] | 2.03 ± 0.078
21 | LHVEQLSGGQKTVCAIA [SMC3] | 2.09 ± 0.15
22 | LHYCVSCAIHARIVRVR [RPS26A] | 1.15 ± 0.13
23 | LHYDKDYNLRIYCYFLI [SSN8] | 1.37 ± 0.078
24 | LIAEETNNKKLLEKANN [SMC3] | 2.38 ± 0.073
25 | LIASHYGVSFFTIQSFV [BRR2] | 1.48 ± 0.063
26 | LIDFEYVNDVAIYNNPT [RRI2] | 2.67 ± 0.057
27 | LIENCKQVLDVDPVYKD [FAS2] | 3.33 ± 0.076

Row | Sequence | protein stability index
28 | LIENKIQNKKIQEQRVK [RPN8] | 2.74 ± 0.068
29 | LIHPENFTCNRKILNFK [SWI1] | 2.37 ± 0.064
30 | LIIRNDSLSGAVIAAIM [RPT3] | 2.94 ± 0.21
31 | LIKERQEMERKLEKKRN [ESC2] | 3.1 ± 0.15
32 | LIKKPLTVFYAIKKFKT [SSN3] | 1.77 ± 0.091
33 | LILQRLKDLNLTVSIKI [RGR1] | 2.65 ± 0.072
34 | LIPASDLSWSKQTDTGI [PRP8] | 2.79 ± 0.065
35 | LISGPRNQILVSITDAP [YMR129W/POM152] | 1.46 ± 0.1
36 | LISKPAKKNNFIEDLAP [UBP6] | 2.73 ± 0.069
37 | LITPAVRNTAPNIRELG [YCG1] | 2.68 ± 0.28
38 | LITSEMFDAFVSFYFED [SIN4] | 1.87 ± 0.093
39 | LKEDDSSLYEASLNALK [RPN1] | 3.5 ± 0.12
40 | LKEERAIEPETFTQLVS [PUP3] | 2.94 ± 0.047
41 | LKENAGSLTFLDNKGSG [YIL149C/MLP2] | 3.55 ± 0.12
42 | LKENEENEDGNIEERKE [BRR2] | 3.13 ± 0.098
43 | LKEQELVLYDAENDVIE [BRR2] | 2.99 ± 0.11
44 | LKEQSEQLKEQMEDMEE [SMC4] | 3.3 ± 0.046
45 | LKERAKNISSQLDSKLM [YGR119C/NUP57] | 1.56 ± 0.26
46 | LKIFEGIPPPYDKKKRV [RPL16B] | 1.33 ± 0.24
47 | LKIIHDTFRWVGKKSAP [RPO31] | 2.35 ± 0.2
48 | LKKLEKEYELLTLQEDY [RPT3] | 2.6 ± 0.12
49 | LKLDKIIHVLTTMFENT [RGR1] | 2.39 ± 0.075
50 | LKLLAKSHVLLATPVQF [BRR2] | 1.36 ± 0.11
51 | LKLPADATTWRYSMSEQ [IRR1] | 2.69 ± 0.065
52 | LKRISDGLSFGKGESVI [SIR3] | 3.33 ± 0.099

Row | Sequence | protein stability index
53 | LKRMEILKSPHLSKSPA [SIR4] | 2.95 ± 0.058
54 | LKSQMDTSKALLNVSVN [SKI6] | 3.23 ± 0.13
55 | LKTLTHKQIHTTIFVKS [POP7] | 1.77 ± 0.063
56 | LKTRYVGRQDPKKHLSE [RPN11] | 3.3 ± 0.078
57 | LKVYKVGDIVDIKANGS [RPL21A] | 2.07 ± 0.052
58 | LLAKAVANQTSATFLRI [RPT2] | 2.3 ± 0.14
59 | LLAREVLRLRGALVDRT [RPS0A] | 1.78 ± 0.15
60 | LLDDKKLMDEDSVATVI [YJR042W/NUP85] | 2.87 ± 0.14
61 | LLDEEAEQSFDQQSPWL [RPO21] | 3.24 ± 0.045
62 | LLDILVKGETRIQNRVK [PRP8] | 3.49 ± 0.096
63 | LLEKANNQQRLLLKKLD [SMC3] | 2.28 ± 0.06
64 | LLEKYNTNELKEVSSFL [MTR3] | 3.23 ± 0.046
65 | LLENPNCFFDVIVPQIV [DIS3] | 2.99 ± 0.065
66 | LLEPPAKELQGIDPDET [RPO31] | 3.31 ± 0.082
67 | LLHVAVSDSNDDVRRAA [RPN2] | 2.69 ± 0.12
68 | LLIEFPYLPKHYLVLLV [YJR042W/NUP85] | 2.07 ± 0.067
69 | LLIGCKLDQDDEIYIPI [CSI1] | 3.01 ± 0.084
70 | LLLAAQIVSYCSNNKNS [SSN2] | 1.23 ± 0.083
71 | LLLNYLELIGVLSINPD [MED7] | 1.31 ± 0.14
72 | LLPNSKNVENTKNLSIL [DSN1] | 2.43 ± 0.12
73 | LLRIQMLLCVSYFLQER [PCI8] | 1.35 ± 0.074
74 | LLSDTFEVLAPKWERVF [RRI2] | 1.75 ± 0.091
75 | LLTEELAKSGSTEETTA [TAF14] | 2.82 ± 0.1
76 | LLVNPDIDLETYSFIDN [YML103C/NUP188] | 2.66 ± 0.056

Same assay, conditions: ubr1∆

Row | Sequence | protein stability index
77 | LESISHAGTAIGIMASD [PRE9] | 1.5 ± 0.13
78 | LETLEHNGAPHHAIEEA [RPO21] | 2.95 ± 0.19
79 | LEYEISKLKKETASFIP [YIL149C/MLP2] | 2.68 ± 0.059
80 | LFGNKPTTTTGGLFGNS [YGR119C/NUP57] | 3.19 ± 0.055
81 | LFQLLNALTVGDFDKFD [RPN9] | 1.8 ± 0.28
82 | LGEEHPLQVARCTKIIK [RPT1] | 2.39 ± 0.085
83 | LGGEINDNEDDDEEYDY [BRR2] | 3.43 ± 0.1
84 | LGICTHLGCVPIGEAGD [RIP1] | 1.9 ± 0.083
85 | LGKCSRITDASLFQLSK [GRR1] | 2.88 ± 0.063
86 | LGKKKATVDEFPLCVHL [RPL10] | 2.71 ± 0.069
87 | LGNGVACDPSEIEPILM [RGR1] | 2.91 ± 0.063
88 | LGNHAITIDSVVDANGC [YMR129W/POM152] | 2.79 ± 0.085
89 | LGNTSSVANTPSEIPDA [SWI3] | 2.98 ± 0.047
90 | LGPGIYCDPNTQEIRPV [RRP40] | 2.59 ± 0.058
91 | LGSGSNVDVCVMEIGKD [PUP1] | 3.51 ± 0.091
92 | LGVKNLGLCCLLDVKLA [YCG1] | 1.81 ± 0.038
93 | LGVKSRLLEKSELPDIY [SNF2] | 3.11 ± 0.19
94 | LGWDLDAIIPFAAIPEQ [FAS2] | 3.15 ± 0.16
95 | LHKEQWQSGLKMYDYEE [RPN11] | 2.39 ± 0.053
96 | LHKFLTKWGLINYQVDS [SWI3] | 2.12 ± 0.072
97 | LHVEQLSGGQKTVCAIA [SMC3] | 1.82 ± 0.067
98 | LHYCVSCAIHARIVRVR [RPS26A] | 1.2 ± 0.12
99 | LHYDKDYNLRIYCYFLI [SSN8] | 1.53 ± 0.046
100 | LIAEETNNKKLLEKANN [SMC3] | 3.32 ± 0.063
101 | LIASHYGVSFFTIQSFV [BRR2] | 1.81 ± 0.051

Row | Sequence | protein stability index
102 | LIDFEYVNDVAIYNNPT [RRI2] | 2.95 ± 0.049
103 | LIENCKQVLDVDPVYKD [FAS2] | 3.37 ± 0.068
104 | LIENKIQNKKIQEQRVK [RPN8] | 2.83 ± 0.049
105 | LIHPENFTCNRKILNFK [SWI1] | 2.88 ± 0.075
106 | LIIRNDSLSGAVIAAIM [RPT3] | 3.12 ± 0.098
107 | LIKKPLTVFYAIKKFKT [SSN3] | 1.42 ± 0.075
108 | LILQRLKDLNLTVSIKI [RGR1] | 1.98 ± 0.052
109 | LIPASDLSWSKQTDTGI [PRP8] | 2.38 ± 0.044
110 | LISGPRNQILVSITDAP [YMR129W/POM152] | 1.68 ± 0.079
111 | LISKPAKKNNFIEDLAP [UBP6] | 2.7 ± 0.062
112 | LITPAVRNTAPNIRELG [YCG1] | 3.09 ± 0.093
113 | LITSEMFDAFVSFYFED [SIN4] | 2.93 ± 0.081
114 | LKEDDSSLYEASLNALK [RPN1] | 2.95 ± 0.093
115 | LKEERAIEPETFTQLVS [PUP3] | 2.62 ± 0.04
116 | LKENAGSLTFLDNKGSG [YIL149C/MLP2] | 3.48 ± 0.066
117 | LKEQELVLYDAENDVIE [BRR2] | 2.74 ± 0.11
118 | LKEQSEQLKEQMEDMEE [SMC4] | 3.14 ± 0.1
119 | LKERAKNISSQLDSKLM [YGR119C/NUP57] | 1.28 ± 0.13
120 | LKIFEGIPPPYDKKKRV [RPL16B] | 1.51 ± 0.066
121 | LKIIHDTFRWVGKKSAP [RPO31] | 3.14 ± 0.11
122 | LKKLEKEYELLTLQEDY [RPT3] | 2.32 ± 0.052
123 | LKLDKIIHVLTTMFENT [RGR1] | 2.73 ± 0.044
124 | LKLLAKSHVLLATPVQF [BRR2] | 1.44 ± 0.07
125 | LKLPADATTWRYSMSEQ [IRR1] | 2.5 ± 0.059
126 | LKRISDGLSFGKGESVI [SIR3] | 3.76 ± 0.19

Row | Sequence | protein stability index
127 | LKRMEILKSPHLSKSPA [SIR4] | 2.78 ± 0.045
128 | LKSQMDTSKALLNVSVN [SKI6] | 3.07 ± 0.053
129 | LKTLTHKQIHTTIFVKS [POP7] | 1.82 ± 0.029
130 | LKTRYVGRQDPKKHLSE [RPN11] | 3.26 ± 0.12
131 | LKVYKVGDIVDIKANGS [RPL21A] | 2.11 ± 0.029
132 | LLAKAVANQTSATFLRI [RPT2] | 2.21 ± 0.073
133 | LLAREVLRLRGALVDRT [RPS0A] | 2.03 ± 0.15
134 | LLDEEAEQSFDQQSPWL [RPO21] | 3.08 ± 0.048
135 | LLDILVKGETRIQNRVK [PRP8] | 2.94 ± 0.068
136 | LLEKANNQQRLLLKKLD [SMC3] | 2.39 ± 0.044
137 | LLEKYNTNELKEVSSFL [MTR3] | 3.1 ± 0.053
138 | LLENPNCFFDVIVPQIV [DIS3] | 2.36 ± 0.095
139 | LLEPPAKELQGIDPDET [RPO31] | 3.18 ± 0.12
140 | LLHVAVSDSNDDVRRAA [RPN2] | 3.13 ± 0.11
141 | LLIEFPYLPKHYLVLLV [YJR042W/NUP85] | 1.81 ± 0.047
142 | LLIGCKLDQDDEIYIPI [CSI1] | 3.09 ± 0.11
143 | LLLAAQIVSYCSNNKNS [SSN2] | 1.34 ± 0.045
144 | LLLNYLELIGVLSINPD [MED7] | 1.49 ± 0.058
145 | LLNILITYGIIKVPTYI [SRB8] | 1.03 ± 0.047
146 | LLPNSKNVENTKNLSIL [DSN1] | 2.83 ± 0.054
147 | LLRIQMLLCVSYFLQER [PCI8] | 1.22 ± 0.052
148 | LLSDTFEVLAPKWERVF [RRI2] | 2.93 ± 0.11
149 | LLTEELAKSGSTEETTA [TAF14] | 2.74 ± 0.087
150 | LLVNPDIDLETYSFIDN [YML103C/NUP188] | 2.6 ± 0.038
